Residue numbers refer to the chain shown, from its start. Names may count otherwise. One block for each binder: values may come before it.
Key:
[1] = biological target: T1, recombinant human IL-23R/Fc chimera (R&D Systems) (human, UniProt Q5VWK5 24-353); assay: competition ELISA against IL-23
T1 construct: bought; also called human IL-23R/Fc fusion protein; rhIL23RFc
T1 sequence (looked up): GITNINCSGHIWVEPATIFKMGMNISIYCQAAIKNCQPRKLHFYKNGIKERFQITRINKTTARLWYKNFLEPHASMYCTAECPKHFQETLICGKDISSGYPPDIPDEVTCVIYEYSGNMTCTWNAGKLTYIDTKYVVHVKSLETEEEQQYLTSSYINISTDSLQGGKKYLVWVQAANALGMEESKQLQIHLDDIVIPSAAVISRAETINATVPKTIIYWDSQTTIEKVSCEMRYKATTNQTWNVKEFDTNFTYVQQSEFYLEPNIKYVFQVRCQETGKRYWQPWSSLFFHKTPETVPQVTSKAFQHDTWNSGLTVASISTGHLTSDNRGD
Protocol: Assays were performed generally as follows. Individual wells in Immulon HB2 plates were incubated overnight at 4° C. with 100 μL PBS containing 100 ng of an anti-human IgG Fc (R&D MAB 110 clone 97924). Plates were washed five times with PBS/0.05% Tween 20, and wells were incubated for 1.5 h at RT with 100 μL each of PBS containing 50 ng of recombinant human IL-23R/Fc. […] Competitor was included at a final concentration of 1 μg/mL. After incubation, plates were washed as described and wells were incubated for 40 min at RT with 100 μL each of PBS containing a 1:5000 dilution of streptavidin-HRP conjugate (Pierce catalog no. 21130). After washing, wells were incubated with 100 μL each of TMB (BioFX Lab catalog no. TMBH-1000-0) for up to 30 min at RT. Reactions were stopped with an equal volume of 0.2 M sulfuric acid.
A number of ATRIMER™ polypeptide complexes were tested in competition ELISA more extensively to determine IC50 values.

[2] = biological target: T1, recombinant human IL-23R/Fc chimera …; assay: SPR (Biacore), captured IL-23R/Fc, ATRIMER
Protocol: A Biacore 3000 biosensor (GE Healthcare) was used to evaluate the interaction of human IL-23R and receptor binders. Immobilization of an anti-human IgG Fc antibody (GE Heathcare) to the CM5 chip (Biacore) was performed using standard amine coupling chemistry, and this modified surface was used to capture a recombinant human IL-23R/Fc fusion protein (R&D Systems). A low-density receptor surface, less than 200 RU, was used for all of the analyses. ATRIMER™ polypeptide complex dilutions (1-500 nM) were injected over the IL-23R surface at 30 μl/min and kinetic constants were derived from the sensorgram data using the Biaevaluation software (version 3.1, GE Healthcare). Data collection was 3 minutes for the association and 5 minutes for dissociation. The anti-human IgG surface was regenerated with a 30 s pulse of 3M magnesium chloride. All sensorgrams were double-referenced against an activated and blocked flow-cell as well as buffer injections.

IC50 [1]: 2.6 nM
Ka [2]: 5.21e+08 M⁻¹
Kd [2]: 1.92 nM
koff [2]: 0.00033 s⁻¹
kon [2]: 172000 M⁻¹ s⁻¹
B1: A9E ATRIMER (designed binder)
chain: EPPTQKPKKIVNAKKDVVNTKMFEELKSRLDTLAQEVALLKEQQALQTVCLKGTKVHMKCFLAFTQTKTFHEASEDCISRGGTLSTPQTGSENDALYEYLRQSVGNEAEIWLGLNGSALTNTWVDMTGARIAYKNWETEITAQPDGGLGYWGENCAVLSGAANGKWFDKRCRDQLPYICQFGIV

IC50 [1]: 1.4 nM
Ka [2]: 1.35e+08 M⁻¹
Kd [2]: 7.42 nM
koff [2]: 0.000805 s⁻¹
kon [2]: 109000 M⁻¹ s⁻¹
B2: 4G8 ATRIMER (designed binder)
chain: B1 chain with A118R, L119R, T120S, N121G, T122V, L148F, Y150V, W151F
modifications: Forms a homotrimer through the tetranectin coiled coil; one protomer is given.
notes: made in E. coli; also called 001-69.4G8; ATRIMER complex 4G8

Reference: patent US20110086770A1 (ANAPHORE, published 2011)
